From patent publication US20170174769A1 come the findings set out here.

Assay [1] addresses extracellular domain of human FGFR1c expressed with C-terminal V5 and hexahistidine tags (human) (UniProt P11362). In words: SPR, mAb captured, 25 C. (In SPR one partner is held on a chip, and binding of the other changes the refractive index at the surface.)
The target of assay [2] is extracellular domain of human KLB expressed with C-terminal HA and hexahistidine tags (human) (UniProt Q86Z14). Nature of the assay: SPR, mAb captured, 25 C.
Sequence of extracellular domain of human KLB expressed with C-terminal HA and hexahistidine tags (human) (Q86Z14 1-996 limits assumed): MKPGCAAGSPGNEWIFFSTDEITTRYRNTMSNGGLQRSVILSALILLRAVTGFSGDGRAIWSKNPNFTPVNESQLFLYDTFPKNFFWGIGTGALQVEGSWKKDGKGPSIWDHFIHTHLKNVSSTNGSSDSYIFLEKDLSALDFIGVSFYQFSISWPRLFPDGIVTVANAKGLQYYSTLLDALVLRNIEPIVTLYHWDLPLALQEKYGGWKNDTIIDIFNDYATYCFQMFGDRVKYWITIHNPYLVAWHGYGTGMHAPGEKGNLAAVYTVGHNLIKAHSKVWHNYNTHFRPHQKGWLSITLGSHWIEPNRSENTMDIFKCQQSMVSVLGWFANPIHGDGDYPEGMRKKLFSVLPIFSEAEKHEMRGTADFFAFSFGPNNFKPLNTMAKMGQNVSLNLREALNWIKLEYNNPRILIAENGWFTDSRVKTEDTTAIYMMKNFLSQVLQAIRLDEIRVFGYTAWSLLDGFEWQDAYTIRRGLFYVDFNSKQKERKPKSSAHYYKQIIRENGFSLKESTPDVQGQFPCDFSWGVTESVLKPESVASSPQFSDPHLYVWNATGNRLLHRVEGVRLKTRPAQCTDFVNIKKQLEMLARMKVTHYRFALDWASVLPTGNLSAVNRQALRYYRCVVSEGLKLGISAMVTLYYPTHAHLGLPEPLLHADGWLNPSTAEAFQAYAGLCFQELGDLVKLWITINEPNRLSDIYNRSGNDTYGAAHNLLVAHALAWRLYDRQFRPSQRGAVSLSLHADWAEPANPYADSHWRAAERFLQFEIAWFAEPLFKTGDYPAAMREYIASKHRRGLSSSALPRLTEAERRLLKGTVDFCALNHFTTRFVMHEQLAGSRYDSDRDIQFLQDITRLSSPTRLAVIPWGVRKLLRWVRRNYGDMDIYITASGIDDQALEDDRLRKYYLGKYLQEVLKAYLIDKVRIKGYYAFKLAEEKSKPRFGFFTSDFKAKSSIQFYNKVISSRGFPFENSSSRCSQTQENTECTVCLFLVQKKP
Assay [3] concerns the target extracellular domain of human FGFR1c expressed with C-terminal V5 and hexahistidine tags (human) (UniProt P11362). In words: SPR, mAb captured, 37 C.
The target in assay [4] is extracellular domain of human KLB expressed with C-terminal HA and hexahistidine tags (human) (UniProt Q86Z14). Nature of the assay: SPR, mAb captured, 37 C.
Assay [5] has as its target full-length human FGFR1c on HEK293/hFGFR1c/SRE-luc cells (human) (UniProt P11362). In words: FACS on stable HEK293 cells.
The target in assay [6] is human KLB and human FGFR1c co-expressed on HEK293/hKLB/hFGFR1c/SRE-luc cells (human) (UniProt Q86Z14). In words: FACS on stable HEK293 cells.
Sequence of human KLB and human FGFR1c co-expressed on HEK293/hKLB/hFGFR1c/SRE-luc cells (human) (Q86Z14 whole entry, chain 1 of 2): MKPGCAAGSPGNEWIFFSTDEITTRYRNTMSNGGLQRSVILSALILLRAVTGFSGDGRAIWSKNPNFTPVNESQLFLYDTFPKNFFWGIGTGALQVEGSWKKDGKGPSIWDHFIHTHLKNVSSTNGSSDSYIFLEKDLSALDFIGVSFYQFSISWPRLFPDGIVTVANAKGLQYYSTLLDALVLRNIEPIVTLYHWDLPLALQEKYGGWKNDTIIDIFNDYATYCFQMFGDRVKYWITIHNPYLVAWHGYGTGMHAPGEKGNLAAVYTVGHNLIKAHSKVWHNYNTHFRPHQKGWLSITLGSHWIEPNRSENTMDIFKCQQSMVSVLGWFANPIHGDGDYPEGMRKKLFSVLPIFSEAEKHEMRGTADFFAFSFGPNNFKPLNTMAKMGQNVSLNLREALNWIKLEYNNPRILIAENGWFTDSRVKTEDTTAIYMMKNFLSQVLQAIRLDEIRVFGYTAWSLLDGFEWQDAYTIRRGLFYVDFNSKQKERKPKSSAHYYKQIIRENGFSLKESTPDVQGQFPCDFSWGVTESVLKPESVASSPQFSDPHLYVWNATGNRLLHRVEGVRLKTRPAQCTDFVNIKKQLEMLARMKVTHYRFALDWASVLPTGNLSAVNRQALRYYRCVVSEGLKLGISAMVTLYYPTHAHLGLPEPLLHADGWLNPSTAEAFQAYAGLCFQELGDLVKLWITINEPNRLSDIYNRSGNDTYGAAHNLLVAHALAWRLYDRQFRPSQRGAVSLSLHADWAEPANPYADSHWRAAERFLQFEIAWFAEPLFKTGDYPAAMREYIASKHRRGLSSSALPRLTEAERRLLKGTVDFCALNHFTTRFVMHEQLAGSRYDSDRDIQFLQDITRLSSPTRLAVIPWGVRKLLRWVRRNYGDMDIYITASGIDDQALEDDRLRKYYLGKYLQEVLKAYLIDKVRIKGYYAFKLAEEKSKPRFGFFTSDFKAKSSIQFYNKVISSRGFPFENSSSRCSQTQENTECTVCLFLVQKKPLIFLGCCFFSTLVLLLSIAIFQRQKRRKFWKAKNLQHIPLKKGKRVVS
Sequence of human KLB and human FGFR1c co-expressed on HEK293/hKLB/hFGFR1c/SRE-luc cells (human) (chain, as listed by the source limits assumed, chain 2 of 2): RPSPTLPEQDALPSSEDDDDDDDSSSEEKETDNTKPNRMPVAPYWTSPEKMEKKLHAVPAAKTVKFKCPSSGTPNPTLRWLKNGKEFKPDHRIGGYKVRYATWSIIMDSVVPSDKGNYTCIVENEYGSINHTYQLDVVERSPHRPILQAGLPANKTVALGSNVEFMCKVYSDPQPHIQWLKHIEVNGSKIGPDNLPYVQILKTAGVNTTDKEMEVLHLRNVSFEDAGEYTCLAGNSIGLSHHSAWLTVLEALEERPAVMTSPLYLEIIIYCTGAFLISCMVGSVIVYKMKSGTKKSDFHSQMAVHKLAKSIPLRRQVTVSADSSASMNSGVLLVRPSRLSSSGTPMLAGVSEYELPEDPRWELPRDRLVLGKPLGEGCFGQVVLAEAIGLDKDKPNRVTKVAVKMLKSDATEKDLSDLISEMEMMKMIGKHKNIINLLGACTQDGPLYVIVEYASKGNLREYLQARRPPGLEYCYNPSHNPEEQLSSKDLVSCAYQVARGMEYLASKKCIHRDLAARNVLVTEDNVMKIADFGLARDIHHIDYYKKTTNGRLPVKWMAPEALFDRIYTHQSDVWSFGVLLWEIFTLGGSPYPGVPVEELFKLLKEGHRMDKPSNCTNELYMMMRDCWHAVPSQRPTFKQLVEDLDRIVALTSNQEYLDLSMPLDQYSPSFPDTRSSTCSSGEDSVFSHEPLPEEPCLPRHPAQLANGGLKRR
In assay [7] the target is full-length human KLB on HEK293/hKLB/SRE-luc cells (human) (UniProt Q86Z14). In words: FACS on stable HEK293 cells.
Sequence of full-length human KLB on HEK293/hKLB/SRE-luc cells (human) (Q86Z14 whole entry): as the sequence (Q86Z14 whole entry, chain 1 of 2) above
The target in assay [8] is mouse KLB and mouse FGFR1c co-expressed on HEK293/mKLB/mFGFR1c/SRE-Luc cells (mouse). Nature of the assay: FACS on stable HEK293 cells, 965 nM.
Assay [9] shares this target. Nature of the assay: FACS on stable HEK293 cells, 33 nM.

Sequence of extracellular domain of human FGFR1c expressed with C-terminal V5 and hexahistidine tags (human) (P11362 other isoform, or with tags, fused parts or gaps limits assumed): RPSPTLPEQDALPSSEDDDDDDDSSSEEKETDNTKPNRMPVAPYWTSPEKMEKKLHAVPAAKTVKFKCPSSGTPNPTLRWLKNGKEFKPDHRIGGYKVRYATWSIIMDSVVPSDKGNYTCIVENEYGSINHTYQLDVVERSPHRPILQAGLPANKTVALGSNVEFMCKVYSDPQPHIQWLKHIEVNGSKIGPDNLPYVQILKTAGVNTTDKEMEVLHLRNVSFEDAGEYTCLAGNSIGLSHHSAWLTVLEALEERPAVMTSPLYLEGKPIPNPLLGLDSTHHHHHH
Sequence of full-length human FGFR1c on HEK293/hFGFR1c/SRE-luc cells (human) (P11362 other isoform, or with tags, fused parts or gaps limits assumed): as the sequence (chain, as listed by the source limits assumed, chain 2 of 2) above

B1: Comparator 3 (antibody, from another filing, V domains shown)
VH: EVQLVQSGAEVKKPGASVKVSCKVSGYTFTDYYMHWVQQAPGKGLEWMGLVDPEDGETIYAEKFQGRVTITADTSTDTAYMELSSLRSEDTAVYYCARDDYMDVWGKGTLVTVSS
VL: ETTLTQSPDTLSLSPGEGATLSCRASQSVSGSALAWYQQKPGQAPRLLIYDASSRATGVPDRFSGSGSGADFSLTISRLEPEDFAVYSCQQYGSSPLTFGPGTKVDVKR
For B1, the figures for the 180 nM hFGFR1c-V5-6His Bind (RU) in assay [1] and in [3] were 16.4 RU and 88.8 RU, respectively. Moreover, the dissociation constant Kd is 4.12 nM in assay [1] and 8.76 nM in assay [3]. Besides, the koff in [1] was 0.0129 s⁻¹; in [3], 0.0208 s⁻¹. The results for the kon in assay [1] and in assay [3] were 3.13e+06 M⁻¹ s⁻¹ and 2.37e+06 M⁻¹ s⁻¹, respectively. The t1/2 worked out at 54 s in assay [1] and 36 s in [3]. The 20 nM hKLB-HA-6His Bind (RU) in assay [2] was -1.1 RU; in [4], -1 RU. For the same molecule, the binding ratio to unstained cells in assay [5] turned out to be 27 fold; in [6] it was 33 fold; in assay [7] it was 2 fold.

B2: H1H8900P (antibody, V domains shown)
VH: QVQLVESGGGVVQPGRSLRLSCVASGFTFSSYGMHWVRQAPGKGLEWVAVISFDGSNKYYADSVKGRFTISRDNSKNTLYLQMNSLRPADTAVYYCAKDRSNYYYFGMDVWGQGTTVTVSS
VL: DIVMTQTPLSLPVTPGEPASISCRSSQSLLDSDDGNTYLDWYLQKPGQSPQLLIYTLSYRASGVPDRFSGSGSGTDFTLKISRVEAEDVGVYYCMQRIEFPLTFGGGTKVEIK
With B2, the values for the MFI Ratio to unstained cells in assay [8] and in assay [9] were 2 fold and 1 fold, respectively.

For orientation: Kd means the equilibrium constant for the complex coming apart. Read a low Kd as higher affinity. In general, koff refers to the rate constant with which the complex falls apart. One may read the kon as the second-order rate constant of association. A lower kon goes with slower complex formation.
